# According to the supplement of paper PMC9112550, “Optimization of the antimicrobial peptide Bac7 by deep mutational scanning” (BMC Biology, 2022):
# Test system: Escherichia coli TOP10
# Experiment: shrunken log2 fold change of peptide-encoding DNA abundance (4.5 h post-induction vs induction); higher = less antimicrobial activity (less host growth inhibition)
# Settings: time post-induction: 4.5 h; library: site-saturation at positions 5, 18, 19, 20
# 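Further: peptides expressed intracellularly from a pBAD plasmid library in pooled LB shake-flask culture, induced with 0.3% L-arabinose, DNA abundance read by NGS, three biological replicates, DESeq2 with apeglm shrinkage.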
row,Sequence,shrunken log2 fold change
1,RRIRGRPPRLPRPRPRPEVKPRP,0.0386
2,RRIRRRPPRLPRPRPRPMLCPRP,0.709
3,RRIRMRPPRLPRPRPRPECYPRP,-0.192
4,RRIRVRPPRLPRPRPRPFNCPRP,-0.0327
5,RRIRVRPPRLPRPRPRPVWDPRP,0.142
6,RRIRRRPPRLPRPRPRPLRAPRP,1.17
7,RRIRCRPPRLPRPRPRPFWCPRP,-0.397
8,RRIRCRPPRLPRPRPRPRYVPRP,-0.22
9,RRIRRRPPRLPRPRPRPMSMPRP,-0.17
10,RRIRQRPPRLPRPRPRPCAKPRP,0.0917
11,RRIRMRPPRLPRPRPRPHQYPRP,-0.41
12,RRIRIRPPRLPRPRPRPHPIPRP,-0.265
13,RRIRHRPPRLPRPRPRPMTDPRP,-0.898
14,RRIRDRPPRLPRPRPRPTTLPRP,0.525
15,RRIRTRPPRLPRPRPRPAHCPRP,-0.168
16,RRIRARPPRLPRPRPRPVGPPRP,0.124
17,RRIRRRPPRLPRPRPRPVMIPRP,0.224
18,RRIRTRPPRLPRPRPRPKWRPRP,0.394
19,RRIRYRPPRLPRPRPRPKTMPRP,-0.614
20,RRIRYRPPRLPRPRPRPNPRPRP,-0.123
21,RRIRARPPRLPRPRPRPVANPRP,0.238
22,RRIRERPPRLPRPRPRPLTHPRP,-0.413
23,RRIRCRPPRLPRPRPRPVYDPRP,-0.683
24,RRIRPRPPRLPRPRPRPYKWPRP,-0.296
25,RRIRSRPPRLPRPRPRPFDLPRP,-0.419

row,Sequence,shrunken log2 fold change
1,RRIRPRPPRLPRPRPRPHWTPRP,-0.119
2,RRIRTRPPRLPRPRPRPHKSPRP,0.119
3,RRIRIRPPRLPRPRPRPNQGPRP,0.0325
4,RRIRTRPPRLPRPRPRPRCRPRP,0.158
5,RRIRGRPPRLPRPRPRPLNNPRP,-0.109
6,RRIRKRPPRLPRPRPRPSCSPRP,-0.0597
7,RRIRMRPPRLPRPRPRPVTRPRP,0.494
8,RRIRHRPPRLPRPRPRPDSNPRP,-0.0814
9,RRIRMRPPRLPRPRPRPYDFPRP,-0.00149
10,RRIRFRPPRLPRPRPRPEKNPRP,-0.0204
11,RRIRLRPPRLPRPRPRPKKWPRP,0.11
12,RRIRCRPPRLPRPRPRPMEAPRP,-0.0255
13,RRIRIRPPRLPRPRPRPMEAPRP,-0.0793
14,RRIRVRPPRLPRPRPRPIMWPRP,0.03
15,RRIRERPPRLPRPRPRPYKLPRP,-1.4
16,RRIRMRPPRLPRPRPRPVGDPRP,0.173
17,RRIRSRPPRLPRPRPRPYIVPRP,-0.646
18,RRIRKRPPRLPRPRPRPVKFPRP,0.048
19,RRIRDRPPRLPRPRPRPQQIPRP,-0.148
20,RRIRIRPPRLPRPRPRPHREPRP,-0.0487
21,RRIRRRPPRLPRPRPRPNRPPRP,0.198
22,RRIRMRPPRLPRPRPRPHDWPRP,1.45
23,RRIRVRPPRLPRPRPRPWRAPRP,0.414
24,RRIRTRPPRLPRPRPRPMHRPRP,-0.142
25,RRIRTRPPRLPRPRPRPHYSPRP,-0.0429

row,Sequence,shrunken log2 fold change
1,RRIRHRPPRLPRPRPRPAGFPRP,-0.207
2,RRIRERPPRLPRPRPRPEWDPRP,-0.105
3,RRIRARPPRLPRPRPRPVPFPRP,0.0816
4,RRIRWRPPRLPRPRPRPMVWPRP,0.025
5,RRIRGRPPRLPRPRPRPSWGPRP,0.0507
6,RRIRPRPPRLPRPRPRPKQFPRP,-0.313
7,RRIRLRPPRLPRPRPRPSCGPRP,-0.583
8,RRIRRRPPRLPRPRPRPCPFPRP,0.0522
9,RRIRFRPPRLPRPRPRPHCWPRP,-0.0304
10,RRIRHRPPRLPRPRPRPLTTPRP,-0.142
11,RRIRIRPPRLPRPRPRPQFSPRP,-0.371
12,RRIRRRPPRLPRPRPRPRHGPRP,0.197
13,RRIRCRPPRLPRPRPRPCWVPRP,-0.4
14,RRIRGRPPRLPRPRPRPSQVPRP,0.235
15,RRIRTRPPRLPRPRPRPYSYPRP,-0.692
16,RRIRHRPPRLPRPRPRPMHQPRP,-0.108
17,RRIRARPPRLPRPRPRPLKAPRP,0.16
18,RRIRVRPPRLPRPRPRPNPHPRP,-0.185
19,RRIRFRPPRLPRPRPRPMISPRP,-0.446
20,RRIRERPPRLPRPRPRPPNEPRP,0.28
21,RRIRARPPRLPRPRPRPDPGPRP,0.29
22,RRIRSRPPRLPRPRPRPTFNPRP,-0.366
23,RRIRYRPPRLPRPRPRPRIIPRP,-0.457
24,RRIRARPPRLPRPRPRPIDSPRP,-0.0515
25,RRIRQRPPRLPRPRPRPVGEPRP,0.443

row,Sequence,shrunken log2 fold change
1,RRIRHRPPRLPRPRPRPICVPRP,0.0683
2,RRIRNRPPRLPRPRPRPNYCPRP,0.0133
3,RRIRSRPPRLPRPRPRPFILPRP,-0.695
4,RRIRWRPPRLPRPRPRPMRAPRP,1.2
5,RRIRRRPPRLPRPRPRPEPWPRP,0.538
6,RRIRERPPRLPRPRPRPYAAPRP,-0.368
7,RRIRQRPPRLPRPRPRPFNTPRP,-0.29
8,RRIRHRPPRLPRPRPRPVSFPRP,0.00493
9,RRIRERPPRLPRPRPRPQNLPRP,-0.375
10,RRIRDRPPRLPRPRPRPNMDPRP,-0.491
11,RRIRFRPPRLPRPRPRPMEIPRP,-0.298
12,RRIRRRPPRLPRPRPRPHLFPRP,0.0328
13,RRIRSRPPRLPRPRPRPHVQPRP,0.132
14,RRIRKRPPRLPRPRPRPMDPPRP,0.115
15,RRIRSRPPRLPRPRPRPPPWPRP,0.651
16,RRIRARPPRLPRPRPRPSDGPRP,0.0321
17,RRIRFRPPRLPRPRPRPGHKPRP,0.0531
18,RRIRARPPRLPRPRPRPKWDPRP,0.373
19,RRIRYRPPRLPRPRPRPQGMPRP,-0.0114
20,RRIRHRPPRLPRPRPRPRAYPRP,-0.411
21,RRIRQRPPRLPRPRPRPYPSPRP,-0.161
22,RRIRKRPPRLPRPRPRPWVNPRP,0.0319
23,RRIRDRPPRLPRPRPRPVVEPRP,0.321
24,RRIRKRPPRLPRPRPRPFFAPRP,0.645
25,RRIRFRPPRLPRPRPRPMPLPRP,-0.417

row,Sequence,shrunken log2 fold change
1,RRIRSRPPRLPRPRPRPNSSPRP,-0.31
2,RRIRQRPPRLPRPRPRPCRRPRP,0.00897
3,RRIRQRPPRLPRPRPRPKEFPRP,0.0639
4,RRIRHRPPRLPRPRPRPSWRPRP,-0.0493
5,RRIRERPPRLPRPRPRPHGSPRP,-0.15
6,RRIRNRPPRLPRPRPRPQRLPRP,0.0491
7,RRIRMRPPRLPRPRPRPTENPRP,0.772
8,RRIRLRPPRLPRPRPRPECIPRP,-0.0423
9,RRIRCRPPRLPRPRPRPCYLPRP,-0.684
10,RRIRYRPPRLPRPRPRPFDWPRP,-0.122
11,RRIRHRPPRLPRPRPRPYEVPRP,0.028
12,RRIRARPPRLPRPRPRPSHMPRP,-0.184
13,RRIRARPPRLPRPRPRPKKGPRP,0.364
14,RRIRWRPPRLPRPRPRPNWVPRP,0.0816
15,RRIRGRPPRLPRPRPRPEHYPRP,-0.0809
16,RRIRHRPPRLPRPRPRPNMYPRP,-0.963
17,RRIRVRPPRLPRPRPRPINPPRP,-0.327
18,RRIRMRPPRLPRPRPRPCGPPRP,0.481
19,RRIRQRPPRLPRPRPRPRNDPRP,-0.485
20,RRIRIRPPRLPRPRPRPPKLPRP,0.0517
21,RRIRKRPPRLPRPRPRPWALPRP,-0.0102
22,RRIRSRPPRLPRPRPRPRFLPRP,0.159
23,RRIRPRPPRLPRPRPRPACKPRP,0.0686
24,RRIRQRPPRLPRPRPRPEFNPRP,-0.0823
25,RRIRWRPPRLPRPRPRPFLNPRP,-0.425

row,Sequence,shrunken log2 fold change
1,RRIRIRPPRLPRPRPRPLRPPRP,0.583
2,RRIRPRPPRLPRPRPRPDSRPRP,0.0317
3,RRIRERPPRLPRPRPRPCLCPRP,-0.134
4,RRIRLRPPRLPRPRPRPITRPRP,0.177
5,RRIRTRPPRLPRPRPRPLMEPRP,0.0859
6,RRIRPRPPRLPRPRPRPRHIPRP,-0.0802
7,RRIRERPPRLPRPRPRPLLLPRP,-0.305
8,RRIRNRPPRLPRPRPRPPPQPRP,0.931
9,RRIRERPPRLPRPRPRPDEQPRP,-0.00815
10,RRIRSRPPRLPRPRPRPKGRPRP,0.0764
11,RRIRDRPPRLPRPRPRPMCTPRP,-0.0135
12,RRIRIRPPRLPRPRPRPCQAPRP,-0.025
13,RRIRFRPPRLPRPRPRPRDLPRP,-0.00831
14,RRIRTRPPRLPRPRPRPEPQPRP,0.927
15,RRIRARPPRLPRPRPRPIFPPRP,0.32
16,RRIRARPPRLPRPRPRPGFPPRP,0.213
17,RRIRLRPPRLPRPRPRPNQYPRP,-0.126
18,RRIRNRPPRLPRPRPRPSTAPRP,-0.28
19,RRIRQRPPRLPRPRPRPRSFPRP,-0.0281
20,RRIRWRPPRLPRPRPRPIIPPRP,-0.104
21,RRIRLRPPRLPRPRPRPCWSPRP,-0.172
22,RRIRYRPPRLPRPRPRPQPPPRP,0.163
23,RRIRARPPRLPRPRPRPHCIPRP,0.102
24,RRIRGRPPRLPRPRPRPLAFPRP,0.487
25,RRIRFRPPRLPRPRPRPMQKPRP,0.00713
